Data from the supplement of paper PMC10567573.
± gives the standard deviation.

Experiment: protein stability index of a GFP-peptide fusion (GPS, HEK-293T) (PSI 1-6); higher = more stable
Details: c terminus: a fixed tail appended
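Note: 24-mer peptide tiles fused after GFP, lentivirally expressed, FACS-sorted into six equal bins by GFP/DsRed ratio, decoded by Illumina sequencing, PSI is the read-weighted mean bin number.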

Sequence	protein stability index (treatment: DMSO)	protein stability index (treatment: MLN4924 1 uM, 8 h)
QFIANLDQLNDGQDFAKDLLKTLY [PSD2]	2.21 ± 0.43	2.42 ± 0.28
QQIAMDPEEVKSLDSNGAGEKSEN [BCL2L13]	5.6 ± 0.45	5.63 ± 0.3
PPGNVYWPLRGKREAMLEMLLQHQ [SPAG8]	2.52 ± 0.055	2.65 ± 0.3
GTLDNSKSMKPYNYCSAYESFYES [NEUROD6]	3.02 ± 0.41	3.12 ± 0.35
TLREITDQEHNVAALKQAIKDKEA [TEKT4]	4.92 ± 0.27	4.88 ± 0.26
GSKVTCRGLLEYFKAYIKIYQGED [ATL3]	2.31 ± 0.14	–
TSIVYATEKKQTKVEFPEARIYEE [KCTD10]	4.5 ± 0.12	4.21 ± 0.55
EQEDPADYCKGGYHPVKIGDLFNG [SRPK2]	3.9 ± 0.32	3.98 ± 0.47
PTEGAGSPAKASQASKLRASKEEK [FBF1]	5.41 ± 0.21	5.43 ± 0.28
TAEDAELSDFEECEETGELFEEPA [FCHSD1]	5.58 ± 0.24	5.5 ± 0.28
TLFKKIQALQKEKETLAVNYEKEE [CCDC6]	3.52 ± 0.27	3.35 ± 0.086
PEADCIPKEQLSTSFQWVTKWVDY [PLK2]	3.01 ± 0.34	2.8 ± 0.48
TWWRVRNAANRTGYVPSNYVERKN [NCK2]	2.86 ± 0.14	3.06 ± 0.27
ILSKVQKNHVGKPLLKMDLNSEQA [FAM98B]	3.62 ± 0.31	3.46 ± 0.47
ENSICVGFKRDYYLIRVDGKGSIK [VPS39]	2.16 ± 0.54	2.35 ± 0.37
THNIAHGSLGFEPVYVSCIAQDTC [SPAG8]	2.69 ± 0.14	2.64 ± 0.2
VTEHPLELIRVEVEILDLNDNSPS [PCDHGC5]	2.92 ± 0.29	3 ± 0.41
RRHCPLPQATFWGLVTPRSWSCHT [SOAT2]	2.46 ± 0.4	2.25 ± 0.17
KQLIYRVRRTDDTPVVLVGNKSDL [RIT1]	3.06 ± 0.26	3.23 ± 0.23
VNYTQGLWEKVMPSRYAAIYNGGV [SLC19A2]	2.33 ± 0.18	2.21 ± 0.47
NSTQADEGKTKKGVLEAPDTQVNP [FBXO34]	5.49 ± 0.19	5.41 ± 0.18
GCQVSPEGYAHLTHLLMGLASGRI [HDAC6]	2.46 ± 0.89	2.57 ± 0.53
RFELINIDDLEDDPVVNGERSGCA [TCF25]	4.69 ± 0.26	4.68 ± 0.26

Sequence	protein stability index (treatment: DMSO)	protein stability index (treatment: MLN4924 1 uM, 8 h)
GPRFGPRNDKIKHVQNQVDEVIDV [VAMP4]	4.24 ± 0.49	4.63 ± 0.22
VYSVSVDQKERCIIVRTTNKKYYK [DPCD]	2.14 ± 0.14	2.21 ± 0.38
IAGGLAGMGGIQNEKETMQSLNDR [KRT18]	4.83 ± 0.24	4.81 ± 0.33
KTSLWEEENALWEEERAFWMENNG [CCDC70]	4 ± 0.12	3.94 ± 0.19
KWNTQTKARSYSYPHCTGISQQDP [ZC2HC1C]	3.33 ± 0.34	3.63 ± 0.38
FICQATGDPRPKIVWNKKGKKVSN [PTPRD]	2.84 ± 0.37	3.35 ± 0.68
LLLILVSYVHILSAILQFPSTLGR [OR10K2]	2.98 ± 0.16	3.33 ± 0.35
ELSEEGAEGRVVGRKDITSILRAP [MOSPD3]	4.82 ± 0.11	4.78 ± 0.18
GAGAEESELQAYIAQCQDSPTSGK [MCOLN1]	5.41 ± 0.14	5.45 ± 0.17
HVHCFTCAACKTPIRNRAFYMEEG [PDLIM7]	2.24 ± 0.11	2.47 ± 0.23
VLKYFSHYMEENLMDGGDLPSVTD [PLK2]	2.75 ± 0.52	2.67 ± 0.64
PHMAEQTFEQAIQAASRIIRNEQF [CDC25B]	3.1 ± 0.29	3.39 ± 0.17
LDQLRFPNGVQLSPAEDFVLVAET [APMAP]	3.09 ± 0.23	3.27 ± 0.23
ASWMYQLQHGDQLSICFTCFKAAF [TEX19]	2.59 ± 0.42	2.51 ± 0.53
PASPNPFVHELHLSRLQRVKFCLL [LPCAT4]	2.56 ± 0.6	2.51 ± 0.3
PLAQNERCLHMFLQDEIIDKSYTP [SNX3]	2.97 ± 0.24	3.39 ± 0.22
SQTEAHYSCQSKEILRYMKEFTLL [P2RY14]	2.21 ± 0.15	2.3 ± 0.23
TDKQPLSDAWTYCISKNEWIQFNH [KLHDC2]	2.5 ± 0.2	2.67 ± 0.27
SVLQSVWMEVLVLGVAQRSLPLQD [ESRRA]	3.62 ± 0.79	3.38 ± 0.57
PLPWSECPVVRNGSVAVVEAECEK [SLC6A17]	5.443 ± 0.034	5.3 ± 0.29
TPLLAASVTGHTNIVEYLIQEQPG [FEM1A]	3.39 ± 0.17	3.67 ± 0.32
VHGIRSVGTAAVNMCLVATGGADA [IMPA1]	2.78 ± 0.35	2.93 ± 0.39
